Results taken from publication PMC3630172.

The sequences below were run on GST-rPfPuf2 (Plasmodium falciparum) (assay: EMSA). Details: LightShift RNA EMSA binding buffer (salt, pH not given), 5% glycerol, 2 ug tRNA per 20 ul, RNase inhibitor, 2.5 nM RNA, 0.25-400 nM rPfPuf2, room temperature ….

Sequence	Kd
UUCUCAUUUCCUAAUAAAUUGUUGUGAAAACAA [pfs25 RNA1M]	169 nM
GAAAUGUUCUUUUCCAAUUAUAUUUUGUUCGAUGAUUC [pfs28 RNA1M]	143 nM
GAAAUGUUCUUUUGUAAUUAUAUUUUGUUCGAUGAUUC [pfs28 RNA1]	6.7 nM
UUCUCAUUUGUUAAUAAAUUGUUGUGAAAACAA [pfs25 RNA1]	11.5 nM
